B1: NR2F2 (parent)
chain: NIPFFPDLQITDQVALLRLTWSEL
B2: MYL5 (parent)
chain: DVAGNLDYKALSYVITHGEEKEE

Variants of: B1
Assay: protein stability index of a GFP-peptide fusion (GPS, HEK-293T) (PSI 1-6); higher = more stable
Details: c terminus: a fixed tail appended
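Also: lentivirally expressed fusions sorted by FACS into six bins by GFP to DsRed ratio, PSI derived from sequencing read proportions per bin multiplied by bin number.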

Protein stability index of substitutions, site by site:
W21: M 2; P 2.42; F 2.36; S 2.36; T 1.79; K 2.35; R 2.14; A 2.49; Q 2.21; N 2.37; L 2.08; V 2.4; I 1.65; H 2; C 1.87; E 2.78; G 2.08; Y 1.92; D 3.41
E23: G 2.17; Q 2.12; P 2.24; F 3.75; W 3.24; H 3.17; M 3.42; K 1.55; V 1.76; N 3.71; S 2.97; R 2.02; C 3.21; L 2.57; I 2.96; A 2.71; T 3.56; D 3.12; Y 2.74
L24: C 2.62; S 1.9; T 1.98; Q 1.9; F 1.99; V 2.22; P 1.88; Y 1.65; N 1.97; D 2.11; W 2.55; H 2.68; A 1.64; M 2.87; E 2.02; K 2.25; R 1.96; G 1.65
T20: V 1.95; Y 2.69; W 2.46
S22: Q 1.91; W 3.5; V 1.67; A 2.17; I 2.24; T 2.19; H 2.71; E 2.1; L 3.32; D 2.4; C 3.38; N 2.28; K 1.68; P 1.82; G 3.17; R 1.53; M 3.55; Y 3.13; F 3.38

Variants of: B2
Assay: as above
Details: c terminus: native

Protein stability index, by site and new letter:
L11: A 2.56; C 2.64; G 2.48; Y 2.08; E 2.64; P 2.45; V 1.88; T 2.81
I15: Y 3.01; D 2.31; G 2.31; H 3.3; R 2.73; V 2.59; K 2.19; F 2.49; T 2.81; M 1.82; Q 2.17; N 2.63
Y13: E 2.9; S 2.97; P 3.39; H 2.12; K 2.46; C 2.63; L 2.01; F 1.8; V 1.75; A 2.7; I 2.14
G4: H 2.09; Y 1.57; A 2.02; F 1.77; I 1.46; N 1.51; L 2.03; V 1.92; Q 1.8; E 2.63; M 1.59; T 2.42; C 2.45; R 2.5
Y8: H 1.48; E 2.01; Q 1.98; R 1.75; P 2.05; T 1.42; N 1.56; I 2.11; K 1.39; D 1.81; A 2.1
A10: Q 2; H 2; P 2.28; W 4.9; G 2.1; M 2.23; S 2.08; K 3.21; N 2.48; L 1.97; Y 1.22; R 1.74; D 2.09
T16: K 2.65; C 1.53; S 1.89; H 2.48; E 1.99; D 2.01; L 1.27; Q 2.56; W 2.48; F 3.87; M 1.18; G 3.04
V14: S 2.31; K 2.5; R 1.31; G 2.28; T 2.14; N 3.53; E 2.51; I 3.02; P 2.48; M 1.24; F 2.25
K21: C 2.53; W 1.95; H 1.6; A 2.46; P 1.72; V 1.54; G 3.52; Q 4.06; Y 1.79; F 1.37; D 4.35
N5: K 1.97; I 2.54; M 1.3; T 2.29; Q 2.61; D 2.69; R 1.67; F 1.87
A3: T 2.21; L 2.31; W 3.06; N 1.54; K 2.15; Y 2.15; I 1.71; H 1.8; D 1.87; C 1.29
S12: T 3.01; L 1.77; I 2.45; Q 1.7; G 2.54; E 2.13; K 2.3; V 1.73
K9: H 1.53; V 2.67; L 2.75; C 3.09; R 1.35; S 1.56; P 1.95; G 1.98; N 2.01; T 2.18; M 1.6
V2: N 1.75; W 4.54; Y 4.5; F 1.19; L 1.78; D 2.19; M 1.87; H 1.92; T 2; C 2.31; R 2.3; E 1.35
D1: Q 2.1; M 1.65; K 2.34; I 1.97; F 2.11; N 2.24; C 2.21; P 1.66; H 3.37; T 2.13; V 1.66; R 2.74
G18: Q 1.94; R 2.43; H 1.7; L 1.69; M 2.07; D 2.61; S 1.49; A 1.45; C 1.68; N 2.11; T 1.78
D7: G 2.02; R 1.69; M 2.11; S 2.5; Y 2.1; E 2.29; N 1.91; I 1.44; P 1.83; H 2.83; Q 1.64; V 1.96
E23: C 4.24; D 4.94; M 2.22; F 2.69; K 3.3; Q 4.85; N 4.99; V 2.5; G 4.37; A 4.11; S 3.81; T 4.54
E19: N 3.3; M 1.08; L 2.9; I 2.19; T 3.2; F 3.04; K 3.27
L6: G 1.93; M 1.76; Q 1.93; A 2.55; W 1.72; S 1.7; F 2.82; D 2.06; H 2.28; E 2.52; C 1.74; T 2.82; P 2.01
H17: P 1.83; S 3.05; G 2.4; C 1.67; R 2.25; M 1.64; W 1.79; A 1.39; N 3.23; K 1.79; T 2.12; L 2.23
E20: H 2.53; N 2.19; I 1.81; R 2.46; S 1.26; Y 2.61; P 1.3; D 1.91; A 3.08; K 2.05; Q 2.59
E22: G 4.27; S 4.46; R 4.24; Y 4.13; V 4.09; Q 4.82; N 4.88; W 3.59; M 4.25; I 4.14; K 5.21; A 4.23; D 4.71; C 4.34

From the supplement of paper PMC10567573
